Data taken from patent CN105330739A.

Experiments:
[1] = target: huVEGF 165 (human); experiment: indirect ELISA on coated huVEGF, antibody at 0.64 ng/ml
[2] = target: huVEGF 165 (human); experiment: indirect ELISA on coated huVEGF, antibody at 16 ng/ml
[3] = target: huVEGF 165 (human); experiment: indirect ELISA on coated huVEGF, antibody at 0.128 ng/ml
[4] = target: huVEGF 165 (human); experiment: indirect ELISA on coated huVEGF, antibody at 0.0256 ng/ml
[5] = target: huVEGF 165 (human); experiment: indirect ELISA on coated huVEGF, antibody at 400 ng/ml
[6] = target: huVEGF 165 (human); experiment: indirect ELISA on coated huVEGF, antibody at 80 ng/ml
[7] = target: huVEGF 165 (human); experiment: indirect ELISA, huVEGF coated at 0.5 ug/ml, four-parameter fit
[8] = target: huVEGF 165 (human); experiment: indirect ELISA on coated huVEGF, antibody at 3.2 ng/ml
[9] = target: huVEGF 165 (human); experiment: indirect ELISA on coated huVEGF, antibody at 0.00512 ng/ml

Chain of huVEGF 165 (human) (chain, as listed by the source, form in doubt): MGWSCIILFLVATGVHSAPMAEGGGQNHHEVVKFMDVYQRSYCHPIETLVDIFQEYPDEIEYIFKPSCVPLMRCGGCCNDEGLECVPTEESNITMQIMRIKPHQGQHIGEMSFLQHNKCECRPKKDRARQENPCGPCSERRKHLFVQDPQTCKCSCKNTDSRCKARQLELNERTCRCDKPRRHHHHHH

B1: NevegiMab抗体 (antibody, V domains shown)
VH: EVKLQESGPELKKPGETVKISCKASGYTFTNYGLNWVKQAPGKGLKWMGWINTYTGEPTYADDFKGRFAFSLETSASTAYLQINNLKNEDMATYFCAKYGITYEWYFDVWGAGTTVTVSS
VL: DIVLTQSTSSLSASLGDRVTISCRASQDISNSLNWYQQKPNGTVILLIYYTSRLHSGVPSRFSGSGSGAVYSLTISDLEQEDIATYFCQQGNTFPWTFGGGTKLEIKR
OD450 复孔1 [1]: 0.572 OD450
OD450 复孔2 [1]: 0.614 OD450
OD平均 [1]: 0.59 OD450
OD450 复孔1 [2]: 3 OD450
OD450 复孔2 [2]: 2.9 OD450
OD平均 [2]: 2.95 OD450
OD450 复孔1 [3]: 0.208 OD450
OD450 复孔2 [3]: 0.214 OD450
OD平均 [3]: 0.21 OD450
OD450 复孔1 [4]: 0.132 OD450
OD450 复孔2 [4]: 0.135 OD450
OD平均 [4]: 0.13 OD450
OD450 复孔1 [5]: 3.53 OD450
OD450 复孔2 [5]: 3.44 OD450
OD平均 [5]: 3.49 OD450
OD450 复孔1 [6]: 3.33 OD450
OD450 复孔2 [6]: 3.31 OD450
OD平均 [6]: 3.32 OD450
EC50 [7]: 0.02 nM
OD450 复孔1 [8]: 1.83 OD450
OD450 复孔2 [8]: 1.92 OD450
OD平均 [8]: 1.87 OD450
OD450 复孔1 [9]: 0.115 OD450
OD450 复孔2 [9]: 0.118 OD450
OD平均 [9]: 0.12 OD450
